Laboratory results from paper PMC4386031.

Target: ubiquitin (monoUb), P0CG48
Assay: NMR titration; NZF domain added to 15N-labeled monoUb or diUb; BEST-TROSY, chemical shift perturbation; NMR PBS (18 mM Na2HPO4, 7 mM NaH2PO4 pH 7.2, 150 mM NaCl), 298 K

Kd | Binder
540 µM | RTQHWTCSVCTYENWAKAKRCVVCDHPRPN (domain or fragment, modifications not checked) [TRABID NZF3]
1000 µM | NANKWSCHMCTYLNWPRAIRCTQCLSQRRT (domain or fragment, modifications not checked) [TRABID NZF2]
